According to the supplement of paper PMC6757056:
± gives the standard deviation of the averaged measurements.

B1: library; a variant is named by its letters at N, in order (parent)
chain: GCUGUCACCGGUGCUUGGUACGUUAUAUUCAGCCGGUCUGAUGAGUCUNNNNNNAGACGAAACAGC

Legend:
(6R,S)-folinic acid [1] = variants of: B1; assay: FACS-Seq fitted mean relative fluorescence mCherry/BFP without ligand (log10 relative fluorescence); HEK293T overexpressing SLC46A1; higher = higher reporter protein expression; details: without (6R,S)-folinic acid; ligand present: no
Outline: (§1)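 Genomic DNA from 6 mCherry/BFP sort bins was PCR-amplified, barcoded and sequenced on MiSeq. The sorted cells were enriched HEK293T libraries, lentivirally transduced with a ribozyme-switch mCherry reporter and an EF1α-BFP marker, incubated with or without ligand for 48 h. Fluorescence derives from a normal fit to the bin counts. The fit was on log10(mCherry/BFP), and means were scaled to five spiked-in control ribozymes.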

(6R,S)-folinic acid [2] = variants of: B1; assay: normalized RNA/DNA level without ligand (relative to sTRSVctl = 100) (log10 (% of sTRSVctl)); HEK293T overexpressing SLC46A1; higher = less ribozyme self-cleavage, higher mRNA level; details: without (6R,S)-folinic acid; ligand present: no
Experimental: (§2)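 Hammerhead (sTRSV) ribozyme switch libraries with a ligand aptamer grafted on stem I and a randomized N4-6 loop II, cloned into the 3' UTR of mCherry and transiently transfected into HEK293T cells; RNA-Seq 72 h post transfection with ligand added 1 h before transfection; RNA read count / plasmid DNA read count normalized to the non-cleaving sTRSVctl (x100), log10; sequences with >100 DNA reads. FACS-Seq: lentiviral library sorted into 6 bins after 48 h ligand, log-normal fit mean of mCherry/BFP scaled to controls. Printed sequences are partial switch sequences.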

(6R,S)-folinic acid [3] = variants of: B1; assay: FACS-Seq fitted mean relative fluorescence mCherry/BFP with ligand (log10 relative fluorescence); HEK293T overexpressing SLC46A1; ligand concentration (+) FACS-Seq: 6 mM; higher = higher reporter protein expression; details: with (6R,S)-folinic acid; ligand present: yes
Outline: as §1

(6R,S)-folinic acid [4] = variants of: B1; assay: normalized RNA/DNA level with ligand (relative to sTRSVctl = 100) (log10 (% of sTRSVctl)); HEK293T overexpressing SLC46A1; ligand concentration (+) RNA-Seq: 6 mM; higher = less ribozyme self-cleavage, higher mRNA level; details: with (6R,S)-folinic acid; ligand present: yes
Experimental: as §2

UAUAUG
FACS-Seq fitted mean (log10) ((6R,S)-folinic acid [1]): 0.194 ± 0.045 | normalized RNA/DNA level without ligand (log10) ((6R,S)-folinic acid [2]): 1.75 ± 0.018 | FACS-Seq fitted mean (log10) ((6R,S)-folinic acid [3]): 0.678 ± 0.12 | normalized RNA/DNA level with ligand (log10) ((6R,S)-folinic acid [4]): 1.97 ± 0.035

AAUCCU
FACS-Seq fitted mean (log10) ((6R,S)-folinic acid [1]): 0.552 ± 0.046 | normalized RNA/DNA level without ligand (log10) ((6R,S)-folinic acid [2]): 2.051 ± 0.0088 | FACS-Seq fitted mean (log10) ((6R,S)-folinic acid [3]): 0.476 ± 0.068 | normalized RNA/DNA level with ligand (log10) ((6R,S)-folinic acid [4]): 2.06 ± 0.019

AAUCCA
FACS-Seq fitted mean (log10) ((6R,S)-folinic acid [1]): 0.639 ± 0.012 | normalized RNA/DNA level without ligand (log10) ((6R,S)-folinic acid [2]): 1.995 ± 0.015 | FACS-Seq fitted mean (log10) ((6R,S)-folinic acid [3]): 0.486 ± 0.014 | normalized RNA/DNA level with ligand (log10) ((6R,S)-folinic acid [4]): 1.99 ± 0.029

AAUGGU
FACS-Seq fitted mean (log10) ((6R,S)-folinic acid [1]): 0.406 ± 0.13 | normalized RNA/DNA level without ligand (log10) ((6R,S)-folinic acid [2]): 1.9355 ± 0.00018 | FACS-Seq fitted mean (log10) ((6R,S)-folinic acid [3]): 0.51 ± 0.099 | normalized RNA/DNA level with ligand (log10) ((6R,S)-folinic acid [4]): 2 ± 0.055

AAUGGG
FACS-Seq fitted mean (log10) ((6R,S)-folinic acid [1]): 0.225 ± 0.07 | normalized RNA/DNA level without ligand (log10) ((6R,S)-folinic acid [2]): 1.8 ± 0.022 | FACS-Seq fitted mean (log10) ((6R,S)-folinic acid [3]): 0.233 ± 0.18 | normalized RNA/DNA level with ligand (log10) ((6R,S)-folinic acid [4]): 2 ± 0.021

AAUUUU
FACS-Seq fitted mean (log10) ((6R,S)-folinic acid [1]): 0.217 ± 0.14 | normalized RNA/DNA level without ligand (log10) ((6R,S)-folinic acid [2]): 2.04 ± 0.029 | FACS-Seq fitted mean (log10) ((6R,S)-folinic acid [3]): 0.309 ± 0.3 | normalized RNA/DNA level with ligand (log10) ((6R,S)-folinic acid [4]): 2.01 ± 0.025

AAUUUG
FACS-Seq fitted mean (log10) ((6R,S)-folinic acid [1]): 0.443 ± 0.039 | normalized RNA/DNA level without ligand (log10) ((6R,S)-folinic acid [2]): 1.952 ± 0.016 | FACS-Seq fitted mean (log10) ((6R,S)-folinic acid [3]): 0.374 ± 0.038 | normalized RNA/DNA level with ligand (log10) ((6R,S)-folinic acid [4]): 2.02 ± 0.024

ACAACA
FACS-Seq fitted mean (log10) ((6R,S)-folinic acid [1]): 0.197 ± 0.026 | normalized RNA/DNA level without ligand (log10) ((6R,S)-folinic acid [2]): 2.032 ± 0.003 | FACS-Seq fitted mean (log10) ((6R,S)-folinic acid [3]): 0.27 ± 0.24 | normalized RNA/DNA level with ligand (log10) ((6R,S)-folinic acid [4]): 2.03 ± 0.04

UCAACU
FACS-Seq fitted mean (log10) ((6R,S)-folinic acid [1]): 0.46 ± 0.092 | normalized RNA/DNA level without ligand (log10) ((6R,S)-folinic acid [2]): 2.03 ± 0.0056 | FACS-Seq fitted mean (log10) ((6R,S)-folinic acid [3]): 0.559 ± 0.13 | normalized RNA/DNA level with ligand (log10) ((6R,S)-folinic acid [4]): 2.04 ± 0.027

UCAACC
FACS-Seq fitted mean (log10) ((6R,S)-folinic acid [1]): 0.654 ± 0.28 | normalized RNA/DNA level without ligand (log10) ((6R,S)-folinic acid [2]): 2.04 ± 0.023 | FACS-Seq fitted mean (log10) ((6R,S)-folinic acid [3]): 0.606 ± 0.39 | normalized RNA/DNA level with ligand (log10) ((6R,S)-folinic acid [4]): 1.978 ± 0.017

GAUACA
FACS-Seq fitted mean (log10) ((6R,S)-folinic acid [1]): 0.251 ± 0.036 | normalized RNA/DNA level without ligand (log10) ((6R,S)-folinic acid [2]): 1.974 ± 0.0043 | FACS-Seq fitted mean (log10) ((6R,S)-folinic acid [3]): 0.585 ± 0.09 | normalized RNA/DNA level with ligand (log10) ((6R,S)-folinic acid [4]): 1.98 ± 0.047

GAUACG
FACS-Seq fitted mean (log10) ((6R,S)-folinic acid [1]): 0.356 ± 0.069 | normalized RNA/DNA level without ligand (log10) ((6R,S)-folinic acid [2]): 1.9665 ± 0.00032 | FACS-Seq fitted mean (log10) ((6R,S)-folinic acid [3]): 0.274 ± 0.0064 | normalized RNA/DNA level with ligand (log10) ((6R,S)-folinic acid [4]): 2 ± 0.0056

GAUAGA
FACS-Seq fitted mean (log10) ((6R,S)-folinic acid [1]): 0.454 ± 0.051 | normalized RNA/DNA level without ligand (log10) ((6R,S)-folinic acid [2]): 1.959 ± 0.0082 | FACS-Seq fitted mean (log10) ((6R,S)-folinic acid [3]): 0.537 ± 0.22 | normalized RNA/DNA level with ligand (log10) ((6R,S)-folinic acid [4]): 2 ± 0.021

GAUAGC
FACS-Seq fitted mean (log10) ((6R,S)-folinic acid [1]): 0.145 ± 0.061 | normalized RNA/DNA level without ligand (log10) ((6R,S)-folinic acid [2]): 1.962 ± 0.017 | FACS-Seq fitted mean (log10) ((6R,S)-folinic acid [3]): 0.257 ± 0.081 | normalized RNA/DNA level with ligand (log10) ((6R,S)-folinic acid [4]): 2.022 ± 0.015

GAUAGU
FACS-Seq fitted mean (log10) ((6R,S)-folinic acid [1]): 0.846 ± 0.085 | normalized RNA/DNA level without ligand (log10) ((6R,S)-folinic acid [2]): 1.963 ± 0.018 | FACS-Seq fitted mean (log10) ((6R,S)-folinic acid [3]): 0.563 ± 0.078 | normalized RNA/DNA level with ligand (log10) ((6R,S)-folinic acid [4]): 2 ± 0.022

GAUAGG
FACS-Seq fitted mean (log10) ((6R,S)-folinic acid [1]): 0.0382 ± 0.037 | normalized RNA/DNA level without ligand (log10) ((6R,S)-folinic acid [2]): 1.921 ± 0.013 | FACS-Seq fitted mean (log10) ((6R,S)-folinic acid [3]): 0.234 ± 0.004 | normalized RNA/DNA level with ligand (log10) ((6R,S)-folinic acid [4]): 2.01 ± 0.022

ACACGA
FACS-Seq fitted mean (log10) ((6R,S)-folinic acid [1]): 0.206 ± 0.039 | normalized RNA/DNA level without ligand (log10) ((6R,S)-folinic acid [2]): 1.9971 ± 0.00061 | FACS-Seq fitted mean (log10) ((6R,S)-folinic acid [3]): 0.242 ± 0.26 | normalized RNA/DNA level with ligand (log10) ((6R,S)-folinic acid [4]): 2.02 ± 0.059

CCAAGU
FACS-Seq fitted mean (log10) ((6R,S)-folinic acid [1]): 0.0806 ± 0.0022 | normalized RNA/DNA level without ligand (log10) ((6R,S)-folinic acid [2]): 2.038 ± 0.0087 | FACS-Seq fitted mean (log10) ((6R,S)-folinic acid [3]): 0.036 ± 0.024 | normalized RNA/DNA level with ligand (log10) ((6R,S)-folinic acid [4]): 2.04 ± 0.047
